Assay results as given in patent publication US20210253648A1.

Target: HLA-A2 MHC class I molecule on the surface of the target cells (no C2 peptide added) (human)

**Q.** Which Percentage of Positive Cells does the source give for “TCR CMV-pp65-PE STAR multimer reagent (Soluble T-Cell Antigen Receptor STAR Multimer, Altor Bioscience)” here?
**A.** Its Percentage of Positive Cells is 0.96%.

**Q.** What about the iMFI of the same substance?
**A.** Its iMFI is 70 RFU.
